Experimental data taken from the supplement of paper PMC12338614.
± gives the uncertainty stated by the source.

B1: library; numbered along this chain (parent)
chain: MEVVDPQQLGMFTEGELMSVGMDTFIHRIDSTEVIYQPRRKRAKLIGKYLMGDLLGEGSYGKVKEVLDSETLCRRAVKILKKKKLRRIPNGEANVKKEIQLLRRLRHKNVIQLVDVLYNEEKQKMYMVMEYCVCGMQEMLDSVPEKRFPVCQAHGYFCQLIDGLEYLHSQGIVHKDIKPGNLLLTTGGTLKISDLGVAEALHPFAADDTCRTSQGSPAFQPPEIANGLDTFSGFKVDIWSAGVTLYNITTGLYPFEGDNIYKLFENIGKGSYAIPGDCGPPLSDLLKGMLEYEPAKRFSIRQIRQHSWFRKKHPPAEAPVPIPPSPDTKDRWRSMTVVPYLEDLHGADEDEDLFDIEDDIIYTQDFTVPGQVPEEEASHNGQRRGLPKAVCMNGTEAAQLSTKSRAEGRAPNPARKACSASSKIRRLSACKQQ

Variants of: B1
Experiment: STK11 functional score (HeLa growth suppression), rescaled enrichment; synonymous median = 1, nonsense median = 0 (normalised score)
Details: with HeLa; variant type: missense
Experimental: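 Deep mutational scan (TileSeq/POPCode codon randomisation) of full-length codon-optimised STK11 cDNA integrated at a Bxb1 landing pad (AAVS1) in HeLa cells. Restoring functional STK11 suppresses HeLa proliferation. Variant frequencies were measured by NGS before and after about two weeks of growth. The error-corrected enrichment log-ratio was rescaled so that synonymous median = 1 and nonsense median = 0, scores above 1 were compressed, and codon-level and three biological replicate scores were combined; error is the bootstrapped standard error. Scale: synonymous median = 1, nonsense median = 0; below 0.5 = damaging.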
Work on MEVVDPQQLGMFTEGELMSVGMDTFIHRIDSTEVIYQPRFKRAKLIGKYLMGDLLGEGSYGKVKEVLDSETLCRRAVKILKKKKLRRIPNGEANVKKEIQLLRRLRHKNVIQLVDVLYNEEKQKMYMVMEYCVCGMQEMLDSVPEKRFPVCQAHGYFCQLIDGLEYLHSQGIVHKDIKPGNLLLTTGGTLKISDLGVAEALHPFAADDTCRTSQGSPAFQPPEIANGLDTFSGFKVDIWSAGVTLYNITTGLYPFEGDNIYKLFENIGKGSYAIPGDCGPPLSDLLKGMLEYEPAKRFSIRQIRQHSWFRKKHPPAEAPVPIPPSPDTKDRWRSMTVVPYLEDLHGADEDEDLFDIEDDIIYTQDFTVPGQVPEEEASHNGQRRGLPKAVCMNGTEAAQLSTKSRAEGRAPNPARKACSASSKIRRLSACKQQ [R40F] yielded an STK11 functional score of 1.3 ± 0.15.
Work on MEVVDPQQLGMFTEGELMSVGMDTFIHRIDSTEVIYQPRGKRAKLIGKYLMGDLLGEGSYGKVKEVLDSETLCRRAVKILKKKKLRRIPNGEANVKKEIQLLRRLRHKNVIQLVDVLYNEEKQKMYMVMEYCVCGMQEMLDSVPEKRFPVCQAHGYFCQLIDGLEYLHSQGIVHKDIKPGNLLLTTGGTLKISDLGVAEALHPFAADDTCRTSQGSPAFQPPEIANGLDTFSGFKVDIWSAGVTLYNITTGLYPFEGDNIYKLFENIGKGSYAIPGDCGPPLSDLLKGMLEYEPAKRFSIRQIRQHSWFRKKHPPAEAPVPIPPSPDTKDRWRSMTVVPYLEDLHGADEDEDLFDIEDDIIYTQDFTVPGQVPEEEASHNGQRRGLPKAVCMNGTEAAQLSTKSRAEGRAPNPARKACSASSKIRRLSACKQQ [R40G] yielded an STK11 functional score of 1.19 ± 0.27.
With MEVVDPQQLGMFTEGELMSVGMDTFIHRIDSTEVIYQPREKRAKLIGKYLMGDLLGEGSYGKVKEVLDSETLCRRAVKILKKKKLRRIPNGEANVKKEIQLLRRLRHKNVIQLVDVLYNEEKQKMYMVMEYCVCGMQEMLDSVPEKRFPVCQAHGYFCQLIDGLEYLHSQGIVHKDIKPGNLLLTTGGTLKISDLGVAEALHPFAADDTCRTSQGSPAFQPPEIANGLDTFSGFKVDIWSAGVTLYNITTGLYPFEGDNIYKLFENIGKGSYAIPGDCGPPLSDLLKGMLEYEPAKRFSIRQIRQHSWFRKKHPPAEAPVPIPPSPDTKDRWRSMTVVPYLEDLHGADEDEDLFDIEDDIIYTQDFTVPGQVPEEEASHNGQRRGLPKAVCMNGTEAAQLSTKSRAEGRAPNPARKACSASSKIRRLSACKQQ [R40E] the STK11 functional score was 1.41 ± 0.47.
In the case of MEVVDPQQLGMFTEGELMSVGMDTFIHRIDSTEVIYQPRAKRAKLIGKYLMGDLLGEGSYGKVKEVLDSETLCRRAVKILKKKKLRRIPNGEANVKKEIQLLRRLRHKNVIQLVDVLYNEEKQKMYMVMEYCVCGMQEMLDSVPEKRFPVCQAHGYFCQLIDGLEYLHSQGIVHKDIKPGNLLLTTGGTLKISDLGVAEALHPFAADDTCRTSQGSPAFQPPEIANGLDTFSGFKVDIWSAGVTLYNITTGLYPFEGDNIYKLFENIGKGSYAIPGDCGPPLSDLLKGMLEYEPAKRFSIRQIRQHSWFRKKHPPAEAPVPIPPSPDTKDRWRSMTVVPYLEDLHGADEDEDLFDIEDDIIYTQDFTVPGQVPEEEASHNGQRRGLPKAVCMNGTEAAQLSTKSRAEGRAPNPARKACSASSKIRRLSACKQQ [R40A], the STK11 functional score is reported as 1.6 ± 0.36.
For MEVVDPQQLGMFTEGELMSVGMDTFIHRIDSTEVIYQPRCKRAKLIGKYLMGDLLGEGSYGKVKEVLDSETLCRRAVKILKKKKLRRIPNGEANVKKEIQLLRRLRHKNVIQLVDVLYNEEKQKMYMVMEYCVCGMQEMLDSVPEKRFPVCQAHGYFCQLIDGLEYLHSQGIVHKDIKPGNLLLTTGGTLKISDLGVAEALHPFAADDTCRTSQGSPAFQPPEIANGLDTFSGFKVDIWSAGVTLYNITTGLYPFEGDNIYKLFENIGKGSYAIPGDCGPPLSDLLKGMLEYEPAKRFSIRQIRQHSWFRKKHPPAEAPVPIPPSPDTKDRWRSMTVVPYLEDLHGADEDEDLFDIEDDIIYTQDFTVPGQVPEEEASHNGQRRGLPKAVCMNGTEAAQLSTKSRAEGRAPNPARKACSASSKIRRLSACKQQ [R40C], the STK11 functional score was 1.39 ± 0.074.
Work on MEVVDPQQLGMFTEGELMSVGMDTFIHRIDSTEVIYQPRDKRAKLIGKYLMGDLLGEGSYGKVKEVLDSETLCRRAVKILKKKKLRRIPNGEANVKKEIQLLRRLRHKNVIQLVDVLYNEEKQKMYMVMEYCVCGMQEMLDSVPEKRFPVCQAHGYFCQLIDGLEYLHSQGIVHKDIKPGNLLLTTGGTLKISDLGVAEALHPFAADDTCRTSQGSPAFQPPEIANGLDTFSGFKVDIWSAGVTLYNITTGLYPFEGDNIYKLFENIGKGSYAIPGDCGPPLSDLLKGMLEYEPAKRFSIRQIRQHSWFRKKHPPAEAPVPIPPSPDTKDRWRSMTVVPYLEDLHGADEDEDLFDIEDDIIYTQDFTVPGQVPEEEASHNGQRRGLPKAVCMNGTEAAQLSTKSRAEGRAPNPARKACSASSKIRRLSACKQQ [R40D] yielded an STK11 functional score of 1.68 ± 0.41.
Variant MEVVDPQQLGMFTEGELMSVGMDTFIHRIDSTEVIYQPMRKRAKLIGKYLMGDLLGEGSYGKVKEVLDSETLCRRAVKILKKKKLRRIPNGEANVKKEIQLLRRLRHKNVIQLVDVLYNEEKQKMYMVMEYCVCGMQEMLDSVPEKRFPVCQAHGYFCQLIDGLEYLHSQGIVHKDIKPGNLLLTTGGTLKISDLGVAEALHPFAADDTCRTSQGSPAFQPPEIANGLDTFSGFKVDIWSAGVTLYNITTGLYPFEGDNIYKLFENIGKGSYAIPGDCGPPLSDLLKGMLEYEPAKRFSIRQIRQHSWFRKKHPPAEAPVPIPPSPDTKDRWRSMTVVPYLEDLHGADEDEDLFDIEDDIIYTQDFTVPGQVPEEEASHNGQRRGLPKAVCMNGTEAAQLSTKSRAEGRAPNPARKACSASSKIRRLSACKQQ [R39M] has an STK11 functional score of 1.58 ± 0.16.
Variant MEVVDPQQLGMFTEGELMSVGMDTFIHRIDSTEVIYQPVRKRAKLIGKYLMGDLLGEGSYGKVKEVLDSETLCRRAVKILKKKKLRRIPNGEANVKKEIQLLRRLRHKNVIQLVDVLYNEEKQKMYMVMEYCVCGMQEMLDSVPEKRFPVCQAHGYFCQLIDGLEYLHSQGIVHKDIKPGNLLLTTGGTLKISDLGVAEALHPFAADDTCRTSQGSPAFQPPEIANGLDTFSGFKVDIWSAGVTLYNITTGLYPFEGDNIYKLFENIGKGSYAIPGDCGPPLSDLLKGMLEYEPAKRFSIRQIRQHSWFRKKHPPAEAPVPIPPSPDTKDRWRSMTVVPYLEDLHGADEDEDLFDIEDDIIYTQDFTVPGQVPEEEASHNGQRRGLPKAVCMNGTEAAQLSTKSRAEGRAPNPARKACSASSKIRRLSACKQQ [R39V] has an STK11 functional score of 1.22 ± 0.14.
In the case of MEVVDPQQLGMFTEGELMSVGMDTFIHRIDSTEVIYQPSRKRAKLIGKYLMGDLLGEGSYGKVKEVLDSETLCRRAVKILKKKKLRRIPNGEANVKKEIQLLRRLRHKNVIQLVDVLYNEEKQKMYMVMEYCVCGMQEMLDSVPEKRFPVCQAHGYFCQLIDGLEYLHSQGIVHKDIKPGNLLLTTGGTLKISDLGVAEALHPFAADDTCRTSQGSPAFQPPEIANGLDTFSGFKVDIWSAGVTLYNITTGLYPFEGDNIYKLFENIGKGSYAIPGDCGPPLSDLLKGMLEYEPAKRFSIRQIRQHSWFRKKHPPAEAPVPIPPSPDTKDRWRSMTVVPYLEDLHGADEDEDLFDIEDDIIYTQDFTVPGQVPEEEASHNGQRRGLPKAVCMNGTEAAQLSTKSRAEGRAPNPARKACSASSKIRRLSACKQQ [R39S], the STK11 functional score is reported as 1.17 ± 0.36.
Work on MEVVDPQQLGMFTEGELMSVGMDTFIHRIDSTEVIYQPLRKRAKLIGKYLMGDLLGEGSYGKVKEVLDSETLCRRAVKILKKKKLRRIPNGEANVKKEIQLLRRLRHKNVIQLVDVLYNEEKQKMYMVMEYCVCGMQEMLDSVPEKRFPVCQAHGYFCQLIDGLEYLHSQGIVHKDIKPGNLLLTTGGTLKISDLGVAEALHPFAADDTCRTSQGSPAFQPPEIANGLDTFSGFKVDIWSAGVTLYNITTGLYPFEGDNIYKLFENIGKGSYAIPGDCGPPLSDLLKGMLEYEPAKRFSIRQIRQHSWFRKKHPPAEAPVPIPPSPDTKDRWRSMTVVPYLEDLHGADEDEDLFDIEDDIIYTQDFTVPGQVPEEEASHNGQRRGLPKAVCMNGTEAAQLSTKSRAEGRAPNPARKACSASSKIRRLSACKQQ [R39L] yielded an STK11 functional score of 1.45 ± 0.17.
Variant MEVVDPQQLGMFTEGELMSVGMDTFIHRIDSTEVIYQPWRKRAKLIGKYLMGDLLGEGSYGKVKEVLDSETLCRRAVKILKKKKLRRIPNGEANVKKEIQLLRRLRHKNVIQLVDVLYNEEKQKMYMVMEYCVCGMQEMLDSVPEKRFPVCQAHGYFCQLIDGLEYLHSQGIVHKDIKPGNLLLTTGGTLKISDLGVAEALHPFAADDTCRTSQGSPAFQPPEIANGLDTFSGFKVDIWSAGVTLYNITTGLYPFEGDNIYKLFENIGKGSYAIPGDCGPPLSDLLKGMLEYEPAKRFSIRQIRQHSWFRKKHPPAEAPVPIPPSPDTKDRWRSMTVVPYLEDLHGADEDEDLFDIEDDIIYTQDFTVPGQVPEEEASHNGQRRGLPKAVCMNGTEAAQLSTKSRAEGRAPNPARKACSASSKIRRLSACKQQ [R39W] has an STK11 functional score of 1.22 ± 0.49.
In the case of MEVVDPQQLGMFTEGELMSVGMDTFIHRIDSTEVIYQPQRKRAKLIGKYLMGDLLGEGSYGKVKEVLDSETLCRRAVKILKKKKLRRIPNGEANVKKEIQLLRRLRHKNVIQLVDVLYNEEKQKMYMVMEYCVCGMQEMLDSVPEKRFPVCQAHGYFCQLIDGLEYLHSQGIVHKDIKPGNLLLTTGGTLKISDLGVAEALHPFAADDTCRTSQGSPAFQPPEIANGLDTFSGFKVDIWSAGVTLYNITTGLYPFEGDNIYKLFENIGKGSYAIPGDCGPPLSDLLKGMLEYEPAKRFSIRQIRQHSWFRKKHPPAEAPVPIPPSPDTKDRWRSMTVVPYLEDLHGADEDEDLFDIEDDIIYTQDFTVPGQVPEEEASHNGQRRGLPKAVCMNGTEAAQLSTKSRAEGRAPNPARKACSASSKIRRLSACKQQ [R39Q], the STK11 functional score is reported as 0.277 ± 0.097.
In the case of MEVVDPQQLGMFTEGELMSVGMDTFIHRIDSTEVIYQPNRKRAKLIGKYLMGDLLGEGSYGKVKEVLDSETLCRRAVKILKKKKLRRIPNGEANVKKEIQLLRRLRHKNVIQLVDVLYNEEKQKMYMVMEYCVCGMQEMLDSVPEKRFPVCQAHGYFCQLIDGLEYLHSQGIVHKDIKPGNLLLTTGGTLKISDLGVAEALHPFAADDTCRTSQGSPAFQPPEIANGLDTFSGFKVDIWSAGVTLYNITTGLYPFEGDNIYKLFENIGKGSYAIPGDCGPPLSDLLKGMLEYEPAKRFSIRQIRQHSWFRKKHPPAEAPVPIPPSPDTKDRWRSMTVVPYLEDLHGADEDEDLFDIEDDIIYTQDFTVPGQVPEEEASHNGQRRGLPKAVCMNGTEAAQLSTKSRAEGRAPNPARKACSASSKIRRLSACKQQ [R39N], the STK11 functional score is reported as 0.65 ± 0.66.
With MEVVDPQQLGMFTEGELMSVGMDTFIHRIDSTEVIYQPTRKRAKLIGKYLMGDLLGEGSYGKVKEVLDSETLCRRAVKILKKKKLRRIPNGEANVKKEIQLLRRLRHKNVIQLVDVLYNEEKQKMYMVMEYCVCGMQEMLDSVPEKRFPVCQAHGYFCQLIDGLEYLHSQGIVHKDIKPGNLLLTTGGTLKISDLGVAEALHPFAADDTCRTSQGSPAFQPPEIANGLDTFSGFKVDIWSAGVTLYNITTGLYPFEGDNIYKLFENIGKGSYAIPGDCGPPLSDLLKGMLEYEPAKRFSIRQIRQHSWFRKKHPPAEAPVPIPPSPDTKDRWRSMTVVPYLEDLHGADEDEDLFDIEDDIIYTQDFTVPGQVPEEEASHNGQRRGLPKAVCMNGTEAAQLSTKSRAEGRAPNPARKACSASSKIRRLSACKQQ [R39T] the STK11 functional score was 0.548 ± 0.26.
